Results published in patent US20250051427A1, “METHODS OF USING AN ANTI-AMYLOID BETA PROTOFIBRIL ANTIBODY AND ANTI-TAU ANTIBODY” (published 2025).

Tests used:
[1] = target: T1, MTBR-tau (microtubule binding region tau) in CSF (Homo sapiens); test: E2814-bound and free MTBR-tau in CSF after a single E2814 infusion of 30 mg/kg
[2] = target: T1, MTBR-tau (microtubule binding region …); test: E2814-bound and free MTBR-tau in CSF after a single E2814 infusion of 3 mg/kg
[3] = target: T1, MTBR-tau (microtubule binding region …); test: E2814-bound and free MTBR-tau in CSF after a single E2814 infusion of 10 mg/kg

B1: E2814 (antibody, V domains shown)
VH: EVQLLESGGGLVQPGGSLRLSCAASGYTFTTYWITWVRQAPGKGLEWVSDIYPGSSISNYNEKFKSRFTISVDNSKNTLYLQMNSLRAEDTAVYYCAREDGYDAWFAYWGQGTLVTVSS
VL: DIQMTQSPSSLSASVGDRVTITCRSSQSILHSNGNTYLEWYQQKPGKAPKLLISKVSNRFSGVPSRFSGSGSGTDFTLTISSLQPEDFATYYCFQGSHVPFTFGQGTKLEIKR
target engagement (TE), fraction (%) of bound MTBR-tau relative to total MTBR-tau [1]: ~60% | target engagement (TE), fraction (%) of bound MTBR-tau relative to total MTBR-tau [2]: ~26% | target engagement (TE), fraction (%) of bound MTBR-tau relative to total MTBR-tau [3]: ~45%
